Measurements as given in article PMC8184850, “Cryo-EM structure of TFIIH/Rad4–Rad23–Rad33 in damaged DNA opening in nucleotide excision repair” (Nature Communications, 2021).

B1: -24/+15 AAF (dsDNA)
DNA 1: CCCATTCCAACCATCCCACTACCTGTCCATCTTCACTCA
DNA 2: TGAGTGAAGATGGACAGGTAGTGGGATGGTTGGAATGGG
modifications: N-2-acetylaminofluorene adduct on the single G of strand 1 (nt 25); printed strand spans -24 to +14
B2: -24/+24 AAF (dsDNA)
DNA 1: CCCATTCCAACCATCCCACTACCTGTCCATCTTCACTCAACTATCACCC
DNA 2: GGGTGATAGTTGAGTGAAGATGGACAGGTAGTGGGATGGTTGGAATGGG
modifications: N-2-acetylaminofluorene adduct on the single G of strand 1 (nt 25, position 0)
B3: -24*/+24 AAF (dsDNA)
DNA 1: B2 DNA 1
DNA 2: GGGTGATAGTTGAGTGAAGATGGACAGGTAGTGGGATGGT
modifications: N-2-acetylaminofluorene adduct on the single G of strand 1 (nt 25, position 0)

How the values were obtained:
[1] = target: T1, coreTFIIH (7 subunits);Rad4-Rad23 (Saccharomyces cerevisiae? (yeast, tfb6 …, UniProt Q00578;P06839;P32776;Q02939;Q04673;Q12004;Q3E7C1;P14736;P32628 …, |)); test: EMSA; AMP-PNP, 2 mM Mg2+; EMSA: 20 mM HEPES, 100 mM K-acetate, 2 mM Mg-acetate, 5 mM DTT, room temperature 20 min, 250 nM each component, 0.2x TBE agarose gel at 4 C (pH not stated in this buffer); conditions: protein: native;recombinant; tags: TAP tags on Tfb4 and Ssl2; TEV-treated;His-purified, thrombin-digested; copies: 1;1;1;1;1;1;1;1;1; label: 32P 5' end (T4 PNK) in EMSA; blunt
[2] = target: T2, coreTFIIH (7 subunits);Rad4-Rad23;Rad33 (Saccharomyces cerevisiae? (yeast, tfb6 …, UniProt Q00578;P06839;P32776;Q02939;Q04673;Q12004;Q3E7C1;P14736;P32628;Q04231 …, ||)); test: EMSA; 100 nM Rad33; Rad4-Rad23 0-100 nM; EMSA: 20 mM HEPES, 100 mM K-acetate, 2 mM Mg-acetate, 5 mM DTT, room temperature 20 min, 250 nM each component, 0.2x TBE agarose gel at 4 C (pH not stated in this buffer); conditions: protein: native;recombinant;recombinant; tags: TAP tags on Tfb4 and Ssl2; TEV-treated;His-purified, thrombin-digested;His (HisTrap-purified, pETDuet); copies: 1;1;1;1;1;1;1;1;1;1; label: 32P 5' end (T4 PNK) in EMSA; blunt
[3] = target: T2, coreTFIIH (7 subunits);Rad4-Rad23;Rad33; test: glycerol gradient sedimentation; ATP; EMSA: 20 mM HEPES, 100 mM K-acetate, 2 mM Mg-acetate, 5 mM DTT, room temperature 20 min, 250 nM each component, 0.2x TBE agarose gel at 4 C (pH not stated in this buffer); conditions: protein: native;recombinant;recombinant; tags: TAP tags on Tfb4 and Ssl2; TEV-treated;His-purified, thrombin-digested;His (HisTrap-purified, pETDuet); copies: 1;1;1;1;1;1;1;1;1;1; label: 32P 5' end (T4 PNK) in EMSA; 5' overhang on strand 1: 9 nt from printed strands (text says 10 nt)
[4] = target: T1, coreTFIIH (7 subunits);Rad4-Rad23; test: EMSA; ATP 4 mM, 2 mM Mg2+; EMSA: 20 mM HEPES, 100 mM K-acetate, 2 mM Mg-acetate, 5 mM DTT, room temperature 20 min, 250 nM each component, 0.2x TBE agarose gel at 4 C (pH not stated in this buffer); conditions: protein: native;recombinant; tags: TAP tags on Tfb4 and Ssl2; TEV-treated;His-purified, thrombin-digested; copies: 1;1;1;1;1;1;1;1;1; label: 32P 5' end (T4 PNK) in EMSA; 5' overhang on strand 1: 9 nt from printed strands (text says 10 nt)

Binder	binding result [1]	binding result [2]	binding result [3]	binding result [4]
B1	binds	–	–	–
B2	binds	binds	–	–
B3	–	–	binds	binds
